# From article PMC12106642 (Nature Communications, 2025)
# Values joined by “and” are separate entries in the source; they are usually repeats but may differ in a detail not shown here. Identical values can stand only once.
# B1: Human Recombinant ADAR Protein NM_001025107 (ADAR1-p110) (enzyme, UniProt P55265-5 1-931, looked up)
# chain: MAEIKEKICDYLFNVSDSSALNLAKNIGLTKARDINAVLIDMERQGDVYRQGTTPPIWHLTDKKRERMQIKRNTNSVPETAPAAIPETKRNAEFLTCNIPTSNASNNMVTTEKVENGQEPVIKLENRQEARPEPARLKPPVHYNGPSKAGYVDFENGQWATDDIPDDLNSIRAAPGEFRAIMEMPSFYSHGLPRCSPYKKLTECQLKNPISGLLEYAQFASQTCEFNMIEQSGPPHEPRFKFQVVINGREFPPAEAGSKKVAKQDAAMKAMTILLEEAKAKDSGKSEESSHYSTEKESEKTAESQTPTPSATSFFSGKSPVTTLLECMHKLGNSCEFRLLSKEGPAHEPKFQYCVAVGAQTFPSVSAPSKKVAKQMAAEEAMKALHGEATNSMASDNQPEGMISESLDNLESMMPNKVRKIGELVRYLNTNPVGGLLEYARSHGFAAEFKLVDQSGPPHEPKFVYQAKVGGRWFPAVCAHSKKQGKQEAADAALRVLIGENEKAERMGFTEVTPVTGASLRRTMLLLSRSPEAQPKTLPLTGSTFHDQIAMLSHRCFNTLTNSFQPSLLGRKILAAIIMKKDSEDMGVVVSLGTGNRCVKGDSLSLKGETVNDCHAEIISRRGFIRFLYSELMKYNSQTAKDSIFEPAKGGEKLQIKKTVSFHLYISTAPCGDGALFDKSCSDRAMESTESRHYPVFENPKQGKLRTKVENGEGTIPVESSDIVPTWDGIRLGERLRTMSCSDKILRWNVLGLQGALLTHFLQPIYLKSVTLGYLFSQGHLTRAICCRVTRDGSAFEDGLRHPFIVNHPKVGRVSIYDSKRQSGKTKETSVNWCLADGYDLEILDGTRGTVDGPRNELSRVSKKNIFLLFKKLCSFRYRRDLLRLSYGEAKKAARDYETAKNYFKKGLKDMGYGNWISKPQEEKNFYLCPV
# Target: the molecule itself
# Assay: high-speed atomic force microscopy
protein,measurement,value
B1,stoichiometry N,2 and 3 and 4
